The text below walks through data of paper PMC7925690, “A molecular switch in sulfur metabolism to reduce arsenic and enrich selenium in rice grain” (Nature Communications, 2021).

Experiment [1] deals with mature OsASTOL1^S189N protein (untagged) (rice (Oryza sativa cv. Kasalath)) (UniProt Q9XEA6). Put plainly: SEC; HiLoad 16/60 Superdex 200 prep grade, 20 mM Tris-HCl, 150 mM NaCl, pH 7.5, 1 ml/min; 1 mg protein in 1 ml injected; molecular weight from a calibration curve. For orientation: SEC sorts molecules by how far they enter the pores of the column.
For experiment [2], the target named is T1, AtOAS-TL A (Arabidopsis thaliana, UniProt P47998).
T1 construct: gene OASA1; full-length ORF, C-terminal His tag (pET-29a NdeI/XhoI); E. coli BL21(DE3); Ni-NTA
Briefly: microscale thermophoresis, RED-tris-NTA labelled His-tagged protein. The format is binding. For orientation: MST reads how a fluorescent partner responds to local heating, with and without ligand.

Experiment [3] has as its target T2, OsASTOL1 (Oryza sativa, UniProt Q9XEA6).
T2 construct: gene RCS1; mature form, N-terminal 87 residues (first 261 bp) deleted; C-terminal His tag (pET-29a NdeI/XhoI); E. coli BL21(DE3); Ni-NTA; dimer by SEC
Described as above. The format is binding.

In experiment [4] the target is mature OsASTOL1 protein (untagged) (rice (Oryza sativa cv. Kasalath)) (UniProt Q9XEA6). Briefly: SEC; HiLoad 16/60 Superdex 200 prep grade, 20 mM Tris-HCl, 150 mM NaCl, pH 7.5, 1 ml/min; 1 mg protein in 1 ml injected; molecular weight from a calibration curve.
The target of experiment [5] is T3, AtOAS-TL A-His (Arabidopsis thaliana, UniProt P47998 1-322, labeled with RED-tris-NTA 2nd Generation Dye).
T3 construct: Arabidopsis thaliana cytosolic O-acetylserine(thiol)lyase A; ORF without the stop codon; Cloned into the NdeI/XhoI sites of pET-29a; also called His-tagged AtOAS-TL A; source: E. coli BL21 (DE3), purified (Ni-NTA); not shown: His, C-terminal, kept
Briefly: MST; His-tagged OAS-TL labeled with RED-tris-NTA 2nd Generation Dye (100 µM as printed) with a serial dilution of the AtSAT5C10 peptide; PBS pH 7.6, 0.05% Tween 20; Monolith NT.115. Particulars: both partners purified.

The target of experiment [6] is T4, AtOAS-TL A^S102N-His (Arabidopsis thaliana, UniProt P47998 1-322, S102N, labeled with RED-tris-NTA 2nd Generation Dye).
T4 construct: Arabidopsis thaliana cytosolic O-acetylserine(thiol)lyase A, site-directed mutant; ORF without the stop codon; Cloned into the NdeI/XhoI sites of pET-29a; also called His-tagged AtOAS-TL A^S102N; source: E. coli BL21 (DE3), purified (Ni-NTA); not shown: His, C-terminal, kept
Described as above. Particulars: both partners purified.

T2 sequence (Q9XEA6 whole entry): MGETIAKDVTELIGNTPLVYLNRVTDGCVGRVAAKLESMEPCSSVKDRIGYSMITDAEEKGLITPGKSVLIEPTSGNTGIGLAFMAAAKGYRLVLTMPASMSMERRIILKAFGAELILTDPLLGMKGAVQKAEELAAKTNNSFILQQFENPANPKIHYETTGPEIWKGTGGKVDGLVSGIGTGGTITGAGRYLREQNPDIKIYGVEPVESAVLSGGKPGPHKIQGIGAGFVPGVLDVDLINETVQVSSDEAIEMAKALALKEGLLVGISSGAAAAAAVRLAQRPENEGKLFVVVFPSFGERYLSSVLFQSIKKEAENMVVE
T4 sequence (P47998 whole entry S102N): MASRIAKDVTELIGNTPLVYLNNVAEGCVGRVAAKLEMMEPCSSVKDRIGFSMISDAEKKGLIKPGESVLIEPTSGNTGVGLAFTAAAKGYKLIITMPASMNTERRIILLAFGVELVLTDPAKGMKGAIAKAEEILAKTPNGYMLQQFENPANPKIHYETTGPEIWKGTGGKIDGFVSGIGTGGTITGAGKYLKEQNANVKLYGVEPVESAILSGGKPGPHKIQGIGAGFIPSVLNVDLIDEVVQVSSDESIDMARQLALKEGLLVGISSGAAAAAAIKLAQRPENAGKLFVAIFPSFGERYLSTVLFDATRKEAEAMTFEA
T3 sequence (P47998 whole entry): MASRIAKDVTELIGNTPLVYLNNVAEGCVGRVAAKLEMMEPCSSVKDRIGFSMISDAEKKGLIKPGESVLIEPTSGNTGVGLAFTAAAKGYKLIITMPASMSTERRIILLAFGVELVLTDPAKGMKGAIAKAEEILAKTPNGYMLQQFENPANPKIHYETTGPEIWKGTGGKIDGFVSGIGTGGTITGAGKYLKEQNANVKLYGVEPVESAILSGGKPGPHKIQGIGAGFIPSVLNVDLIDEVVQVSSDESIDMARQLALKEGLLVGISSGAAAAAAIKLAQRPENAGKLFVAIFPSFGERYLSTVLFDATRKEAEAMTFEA
T1 sequence (P47998 whole entry): as above

Consider “mature OsASTOL1^S189N protein (untagged) (from UniProt Q9XEA6 88-321) (enzyme)”, for which, in experiment [1], the stoichiometry N (in general, a count of units in the complex or per binding partner) was found to be 2.

Regarding `CC(=O)OC[C@H](N)C(=O)O` [OAS], the Kd (commonly the equilibrium constant for the complex coming apart) in experiment [2] is 13.1 ± 4.83 nM; in experiment [3], 1.47 ± 2.42 nM.

“mature OsASTOL1 protein (untagged) (from UniProt Q9XEA6 88-321) (enzyme)” displayed a stoichiometry N in experiment [4] of 2.

B1: AtSAT5C10 peptide (peptide)
peptide: FISEWSDYII
notes: Ten C-terminal residues of Arabidopsis thaliana serine acetyltransferase 5 (AtSAT5), AT5G56760; also called C-terminal fragment of SAT5; AtSAT5C10 fragment; source: synthetic peptide (GenScript Biotech, Nanjing)
Take B1: the binding result in experiment [5] and in experiment [6] was “binds” in each case.
